From patent US20250250321A1

Molecular target: immunoglobulin G (IgG) obtained from human serum (human)
Experiment: human serum IgG (2 mg/mL) bound to Protein A on latex beads, washed, read by SDS-PAGE

increase of binding activity compared to beads with the Protein A monomer: > 15%
Substance: Protein A polymer (UniStac linear multimeric polymer of Protein A) immobilized on latex beads
